Reference: US20130315910A1 (Xencor, published 2013)

What was measured:
[1] = molecular target: T1, human FcγRIIb receptor protein (R&D Systems) (human, UniProt P31994 46-217); experiment: SPR
T1 construct: Bought protein injected over captured antibody in Biacore; also called CD32b
T1 sequence (looked up): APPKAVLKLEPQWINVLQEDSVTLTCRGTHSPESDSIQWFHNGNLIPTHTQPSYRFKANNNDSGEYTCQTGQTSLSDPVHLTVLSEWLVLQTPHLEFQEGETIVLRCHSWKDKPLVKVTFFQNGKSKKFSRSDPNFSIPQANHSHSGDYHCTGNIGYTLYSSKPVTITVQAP
Description: (§1) Variants were screened for receptor affinity using Biacore™ technology, also referred to as Biacore herein, a surface plasmon resonance (SPR) based technology for studying biomolecular interactions in real time. SPR measurements were performed using a Biacore 3000 instrument (Biacore, Piscataway, N.J.). A protein A/G (Pierce Biotechnology) CM5 biosensor chip (Biacore) was generated using a standard primary amine coupling protocol. All measurements were performed using HBS-EP buffer (10 mM HEPES pH 7.4, 0.15 M NaCl, 3 mM EDTA, 0.005% vol/vol surfactant P20, Biacore). Antibodies at 20 nM or 50 nM in HBS-EP buffer were immobilized on the protein A/G surface and FcγRs were injected. After each cycle, the surface was regenerated by injecting glycine buffer (10 mM, pH 1.5). Data were processed by zeroing time and response before the injection of FcγR and by subtracting appropriate nonspecific signals (response of reference channel and injection of running buffer). Kinetic analyses were performed by global fitting of binding data with a 1:1 Langmuir binding model using BIAevaluation software (Biacore).

[2] = molecular target: T2, human FcγRIIa (131R), His- and GST-tagged (human, UniProt P12318 34-217); experiment: SPR
T2 construct: Expressed in HEK293T cells, purified by nickel chromatography; also called R131 FcγRIIa; not shown: 6xHis and GST tags of the pTT5 vector
T2 sequence (looked up): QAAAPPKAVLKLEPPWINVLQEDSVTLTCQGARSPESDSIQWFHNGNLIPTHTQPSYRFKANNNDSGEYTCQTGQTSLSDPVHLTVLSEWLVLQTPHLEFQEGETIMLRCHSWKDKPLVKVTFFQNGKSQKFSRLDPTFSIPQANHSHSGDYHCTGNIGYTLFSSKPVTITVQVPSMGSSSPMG
Description: as §1

B1: G236D/H268D (antibody, human IgG1, kappa)
heavy: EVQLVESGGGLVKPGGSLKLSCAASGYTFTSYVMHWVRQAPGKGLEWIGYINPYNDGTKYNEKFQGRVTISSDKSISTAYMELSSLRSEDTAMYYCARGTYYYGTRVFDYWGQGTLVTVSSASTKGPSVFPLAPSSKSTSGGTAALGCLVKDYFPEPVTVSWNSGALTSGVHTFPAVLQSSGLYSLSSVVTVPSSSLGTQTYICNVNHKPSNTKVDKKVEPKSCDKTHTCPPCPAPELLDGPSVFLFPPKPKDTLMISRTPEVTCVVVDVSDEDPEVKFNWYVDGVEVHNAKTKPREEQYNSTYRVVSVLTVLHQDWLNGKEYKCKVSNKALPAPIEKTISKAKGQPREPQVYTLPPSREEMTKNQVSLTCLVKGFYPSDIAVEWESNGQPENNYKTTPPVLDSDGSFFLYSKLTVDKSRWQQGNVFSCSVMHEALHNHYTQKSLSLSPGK
light: DIVMTQSPATLSLSPGERATLSCRSSKSLQNVNGNTYLYWFQQKPGQSPQLLIYRMSNLNSGVPDRFSGSGSGTEFTLTISSLEPEDFAVYYCMQHLEYPITFGAGTKLEIKRTVAAPSVFIFPPSDEQLKSGTASVVCLLNNFYPREAKVQWKVDNALQSGNSQESVTEQDSKDSTYSLSSTLTLSKADYEKHKVYACEVTHQGLSSPVTKSFNRGEC
notes: HuAM4G7 anti-CD19 IgG1 (m1) with these Fc substitutions, EU index; copies: 2 + 2
Fold vs WT IgG1 [1]: 11.6 fold | Kd [1]: 0.126 µM

B2: G236H (antibody, human IgG1, kappa)
heavy: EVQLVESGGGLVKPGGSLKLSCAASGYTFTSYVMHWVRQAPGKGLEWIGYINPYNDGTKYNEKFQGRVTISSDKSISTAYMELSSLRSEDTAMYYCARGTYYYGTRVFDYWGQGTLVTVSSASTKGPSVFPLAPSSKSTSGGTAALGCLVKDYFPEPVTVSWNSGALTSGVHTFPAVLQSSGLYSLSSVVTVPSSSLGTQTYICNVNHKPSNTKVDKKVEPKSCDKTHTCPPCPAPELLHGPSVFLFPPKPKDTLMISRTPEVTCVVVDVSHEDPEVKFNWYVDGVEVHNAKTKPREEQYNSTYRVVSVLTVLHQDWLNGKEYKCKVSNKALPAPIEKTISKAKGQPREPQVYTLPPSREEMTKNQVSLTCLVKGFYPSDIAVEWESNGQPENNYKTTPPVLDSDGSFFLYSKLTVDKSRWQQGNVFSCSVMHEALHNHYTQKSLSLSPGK
light: DIVMTQSPATLSLSPGERATLSCRSSKSLQNVNGNTYLYWFQQKPGQSPQLLIYRMSNLNSGVPDRFSGSGSGTEFTLTISSLEPEDFAVYYCMQHLEYPITFGAGTKLEIKRTVAAPSVFIFPPSDEQLKSGTASVVCLLNNFYPREAKVQWKVDNALQSGNSQESVTEQDSKDSTYSLSSTLTLSKADYEKHKVYACEVTHQGLSSPVTKSFNRGEC
notes: HuAM4G7 anti-CD19 IgG1 (m1) with this Fc substitution, EU index; copies: 2 + 2
Fold vs WT IgG1 [2]: 0.135 fold | Kd [2]: 6.35 µM | binding result [1]: no binding

B3: G236I (antibody, human IgG1, kappa)
heavy: not shown
light: DIVMTQSPATLSLSPGERATLSCRSSKSLQNVNGNTYLYWFQQKPGQSPQLLIYRMSNLNSGVPDRFSGSGSGTEFTLTISSLEPEDFAVYYCMQHLEYPITFGAGTKLEIKRTVAAPSVFIFPPSDEQLKSGTASVVCLLNNFYPREAKVQWKVDNALQSGNSQESVTEQDSKDSTYSLSSTLTLSKADYEKHKVYACEVTHQGLSSPVTKSFNRGEC
notes: as for B2
binding result [2]: no binding | binding result [1]: no binding

B4: G236K (antibody, human IgG1, kappa)
heavy: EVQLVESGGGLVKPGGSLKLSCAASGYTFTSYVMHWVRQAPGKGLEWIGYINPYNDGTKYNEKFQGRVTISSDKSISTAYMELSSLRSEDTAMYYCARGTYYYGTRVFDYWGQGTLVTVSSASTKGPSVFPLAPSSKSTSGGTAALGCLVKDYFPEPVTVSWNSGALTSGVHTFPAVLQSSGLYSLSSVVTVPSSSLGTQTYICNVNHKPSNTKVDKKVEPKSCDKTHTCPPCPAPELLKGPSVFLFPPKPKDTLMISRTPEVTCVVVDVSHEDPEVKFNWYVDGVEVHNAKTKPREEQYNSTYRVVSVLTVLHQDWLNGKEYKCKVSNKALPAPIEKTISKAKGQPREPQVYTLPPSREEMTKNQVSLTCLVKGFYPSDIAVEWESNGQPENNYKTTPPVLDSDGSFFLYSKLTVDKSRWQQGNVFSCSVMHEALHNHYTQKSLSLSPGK
light: DIVMTQSPATLSLSPGERATLSCRSSKSLQNVNGNTYLYWFQQKPGQSPQLLIYRMSNLNSGVPDRFSGSGSGTEFTLTISSLEPEDFAVYYCMQHLEYPITFGAGTKLEIKRTVAAPSVFIFPPSDEQLKSGTASVVCLLNNFYPREAKVQWKVDNALQSGNSQESVTEQDSKDSTYSLSSTLTLSKADYEKHKVYACEVTHQGLSSPVTKSFNRGEC
notes: as for B2
Fold vs WT IgG1 [2]: 0.00859 fold | Kd [2]: 100 µM | Fold vs WT IgG1 [1]: 0.0147 fold | Kd [1]: 100 µM

B5: G236L (antibody, human IgG1, kappa)
heavy: not shown
light: DIVMTQSPATLSLSPGERATLSCRSSKSLQNVNGNTYLYWFQQKPGQSPQLLIYRMSNLNSGVPDRFSGSGSGTEFTLTISSLEPEDFAVYYCMQHLEYPITFGAGTKLEIKRTVAAPSVFIFPPSDEQLKSGTASVVCLLNNFYPREAKVQWKVDNALQSGNSQESVTEQDSKDSTYSLSSTLTLSKADYEKHKVYACEVTHQGLSSPVTKSFNRGEC
notes: as for B2
binding result [2]: no binding | binding result [1]: no binding

B6: G236M (antibody, human IgG1, kappa)
heavy: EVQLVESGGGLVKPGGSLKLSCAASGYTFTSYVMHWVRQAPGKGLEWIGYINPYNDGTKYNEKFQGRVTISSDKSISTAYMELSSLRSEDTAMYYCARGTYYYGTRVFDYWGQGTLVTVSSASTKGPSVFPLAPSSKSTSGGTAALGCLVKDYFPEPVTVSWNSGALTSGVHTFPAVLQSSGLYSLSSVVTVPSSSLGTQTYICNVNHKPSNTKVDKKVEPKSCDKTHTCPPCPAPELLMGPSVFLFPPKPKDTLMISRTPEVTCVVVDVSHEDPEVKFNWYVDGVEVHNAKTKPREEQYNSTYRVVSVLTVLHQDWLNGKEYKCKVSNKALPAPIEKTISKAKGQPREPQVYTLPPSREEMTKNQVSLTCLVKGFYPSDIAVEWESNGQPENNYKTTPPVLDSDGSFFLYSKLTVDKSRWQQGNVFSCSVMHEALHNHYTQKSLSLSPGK
light: DIVMTQSPATLSLSPGERATLSCRSSKSLQNVNGNTYLYWFQQKPGQSPQLLIYRMSNLNSGVPDRFSGSGSGTEFTLTISSLEPEDFAVYYCMQHLEYPITFGAGTKLEIKRTVAAPSVFIFPPSDEQLKSGTASVVCLLNNFYPREAKVQWKVDNALQSGNSQESVTEQDSKDSTYSLSSTLTLSKADYEKHKVYACEVTHQGLSSPVTKSFNRGEC
notes: as for B2
Fold vs WT IgG1 [2]: 0.0859 fold | Kd [2]: 10 µM | Fold vs WT IgG1 [1]: 0.147 fold | Kd [1]: 10 µM

B7: G236Q (antibody, human IgG1, kappa)
heavy: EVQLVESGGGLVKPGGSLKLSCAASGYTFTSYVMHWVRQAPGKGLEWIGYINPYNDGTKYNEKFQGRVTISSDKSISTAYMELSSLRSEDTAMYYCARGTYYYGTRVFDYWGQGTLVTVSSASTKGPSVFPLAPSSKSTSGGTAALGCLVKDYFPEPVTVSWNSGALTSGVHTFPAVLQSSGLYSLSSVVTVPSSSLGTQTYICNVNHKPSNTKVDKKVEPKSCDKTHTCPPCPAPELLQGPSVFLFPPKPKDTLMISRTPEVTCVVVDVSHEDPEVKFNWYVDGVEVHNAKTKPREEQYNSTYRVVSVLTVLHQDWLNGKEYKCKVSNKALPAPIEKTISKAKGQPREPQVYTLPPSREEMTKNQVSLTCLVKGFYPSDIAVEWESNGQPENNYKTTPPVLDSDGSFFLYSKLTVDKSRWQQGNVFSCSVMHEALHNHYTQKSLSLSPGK
light: DIVMTQSPATLSLSPGERATLSCRSSKSLQNVNGNTYLYWFQQKPGQSPQLLIYRMSNLNSGVPDRFSGSGSGTEFTLTISSLEPEDFAVYYCMQHLEYPITFGAGTKLEIKRTVAAPSVFIFPPSDEQLKSGTASVVCLLNNFYPREAKVQWKVDNALQSGNSQESVTEQDSKDSTYSLSSTLTLSKADYEKHKVYACEVTHQGLSSPVTKSFNRGEC
notes: as for B2
Fold vs WT IgG1 [2]: 0.0859 fold | Kd [2]: 10 µM | Fold vs WT IgG1 [1]: 0.147 fold | Kd [1]: 10 µM

B8: G236W (antibody, human IgG1, kappa)
heavy: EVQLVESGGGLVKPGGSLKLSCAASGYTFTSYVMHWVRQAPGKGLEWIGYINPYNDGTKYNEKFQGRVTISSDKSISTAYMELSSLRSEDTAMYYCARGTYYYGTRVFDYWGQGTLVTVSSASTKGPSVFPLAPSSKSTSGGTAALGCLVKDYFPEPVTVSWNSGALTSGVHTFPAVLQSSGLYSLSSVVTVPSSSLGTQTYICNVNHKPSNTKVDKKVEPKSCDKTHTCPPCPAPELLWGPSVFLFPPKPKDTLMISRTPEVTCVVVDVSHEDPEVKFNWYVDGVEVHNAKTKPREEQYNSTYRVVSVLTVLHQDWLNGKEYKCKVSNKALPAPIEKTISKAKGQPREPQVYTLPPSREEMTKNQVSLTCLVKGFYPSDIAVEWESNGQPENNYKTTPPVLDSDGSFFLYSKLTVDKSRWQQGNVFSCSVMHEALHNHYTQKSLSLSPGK
light: DIVMTQSPATLSLSPGERATLSCRSSKSLQNVNGNTYLYWFQQKPGQSPQLLIYRMSNLNSGVPDRFSGSGSGTEFTLTISSLEPEDFAVYYCMQHLEYPITFGAGTKLEIKRTVAAPSVFIFPPSDEQLKSGTASVVCLLNNFYPREAKVQWKVDNALQSGNSQESVTEQDSKDSTYSLSSTLTLSKADYEKHKVYACEVTHQGLSSPVTKSFNRGEC
notes: as for B2
Fold vs WT IgG1 [2]: 0.0859 fold | Kd [2]: 10 µM | Fold vs WT IgG1 [1]: 0.147 fold | Kd [1]: 10 µM

B9: G236Y (antibody, human IgG1, kappa)
heavy: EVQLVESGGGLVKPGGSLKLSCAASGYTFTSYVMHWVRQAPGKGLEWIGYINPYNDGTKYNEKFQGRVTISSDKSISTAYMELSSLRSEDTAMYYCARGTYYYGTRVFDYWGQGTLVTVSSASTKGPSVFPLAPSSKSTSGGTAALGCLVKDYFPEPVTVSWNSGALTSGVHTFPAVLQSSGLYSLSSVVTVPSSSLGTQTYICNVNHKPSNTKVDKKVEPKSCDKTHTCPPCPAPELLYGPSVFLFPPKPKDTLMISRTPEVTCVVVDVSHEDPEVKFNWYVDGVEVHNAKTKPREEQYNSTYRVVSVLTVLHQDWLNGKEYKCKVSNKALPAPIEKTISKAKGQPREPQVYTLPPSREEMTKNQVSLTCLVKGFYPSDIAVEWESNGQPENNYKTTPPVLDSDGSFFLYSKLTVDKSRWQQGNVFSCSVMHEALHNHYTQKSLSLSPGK
light: DIVMTQSPATLSLSPGERATLSCRSSKSLQNVNGNTYLYWFQQKPGQSPQLLIYRMSNLNSGVPDRFSGSGSGTEFTLTISSLEPEDFAVYYCMQHLEYPITFGAGTKLEIKRTVAAPSVFIFPPSDEQLKSGTASVVCLLNNFYPREAKVQWKVDNALQSGNSQESVTEQDSKDSTYSLSSTLTLSKADYEKHKVYACEVTHQGLSSPVTKSFNRGEC
notes: as for B2
binding result [2]: no binding | binding result [1]: no binding

B10: G237L (antibody, human IgG1, kappa)
heavy: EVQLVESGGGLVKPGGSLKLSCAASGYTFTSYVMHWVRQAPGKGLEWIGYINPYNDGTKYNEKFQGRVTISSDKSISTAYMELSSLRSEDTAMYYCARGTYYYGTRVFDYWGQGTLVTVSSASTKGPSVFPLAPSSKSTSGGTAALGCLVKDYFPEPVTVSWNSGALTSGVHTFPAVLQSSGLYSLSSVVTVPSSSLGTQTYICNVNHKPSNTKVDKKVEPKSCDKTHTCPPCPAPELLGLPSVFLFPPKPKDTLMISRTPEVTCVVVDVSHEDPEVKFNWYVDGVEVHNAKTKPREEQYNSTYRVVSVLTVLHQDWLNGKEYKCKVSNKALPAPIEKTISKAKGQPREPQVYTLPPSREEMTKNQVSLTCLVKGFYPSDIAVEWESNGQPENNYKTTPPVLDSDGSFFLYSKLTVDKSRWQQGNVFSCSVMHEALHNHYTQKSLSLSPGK
light: DIVMTQSPATLSLSPGERATLSCRSSKSLQNVNGNTYLYWFQQKPGQSPQLLIYRMSNLNSGVPDRFSGSGSGTEFTLTISSLEPEDFAVYYCMQHLEYPITFGAGTKLEIKRTVAAPSVFIFPPSDEQLKSGTASVVCLLNNFYPREAKVQWKVDNALQSGNSQESVTEQDSKDSTYSLSSTLTLSKADYEKHKVYACEVTHQGLSSPVTKSFNRGEC
notes: as for B2
binding result [2]: no binding | binding result [1]: no binding

B11: L234E/H268D (antibody, human IgG1, kappa)
heavy: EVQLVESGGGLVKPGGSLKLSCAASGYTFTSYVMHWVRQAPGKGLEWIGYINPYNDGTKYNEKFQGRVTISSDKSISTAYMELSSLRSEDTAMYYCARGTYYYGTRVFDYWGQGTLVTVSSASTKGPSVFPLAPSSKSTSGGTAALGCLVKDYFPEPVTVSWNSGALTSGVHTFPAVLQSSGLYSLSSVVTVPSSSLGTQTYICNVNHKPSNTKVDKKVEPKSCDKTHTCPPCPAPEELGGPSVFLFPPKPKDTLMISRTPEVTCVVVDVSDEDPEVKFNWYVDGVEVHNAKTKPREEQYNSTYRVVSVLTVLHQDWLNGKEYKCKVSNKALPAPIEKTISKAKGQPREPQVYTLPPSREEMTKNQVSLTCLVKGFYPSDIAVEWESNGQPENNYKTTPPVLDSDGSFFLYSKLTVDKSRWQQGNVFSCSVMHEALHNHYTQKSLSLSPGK
light: DIVMTQSPATLSLSPGERATLSCRSSKSLQNVNGNTYLYWFQQKPGQSPQLLIYRMSNLNSGVPDRFSGSGSGTEFTLTISSLEPEDFAVYYCMQHLEYPITFGAGTKLEIKRTVAAPSVFIFPPSDEQLKSGTASVVCLLNNFYPREAKVQWKVDNALQSGNSQESVTEQDSKDSTYSLSSTLTLSKADYEKHKVYACEVTHQGLSSPVTKSFNRGEC
notes: as for B1
Fold vs WT IgG1 [1]: 5.89 fold | Kd [1]: 0.249 µM

B12: L235S/S267E (antibody, human IgG1, kappa)
heavy: not shown
light: DIVMTQSPATLSLSPGERATLSCRSSKSLQNVNGNTYLYWFQQKPGQSPQLLIYRMSNLNSGVPDRFSGSGSGTEFTLTISSLEPEDFAVYYCMQHLEYPITFGAGTKLEIKRTVAAPSVFIFPPSDEQLKSGTASVVCLLNNFYPREAKVQWKVDNALQSGNSQESVTEQDSKDSTYSLSSTLTLSKADYEKHKVYACEVTHQGLSSPVTKSFNRGEC
notes: as for B1
Kd [1]: 37.8 µM

B13: L235Y/S267D (antibody, human IgG1, kappa)
heavy: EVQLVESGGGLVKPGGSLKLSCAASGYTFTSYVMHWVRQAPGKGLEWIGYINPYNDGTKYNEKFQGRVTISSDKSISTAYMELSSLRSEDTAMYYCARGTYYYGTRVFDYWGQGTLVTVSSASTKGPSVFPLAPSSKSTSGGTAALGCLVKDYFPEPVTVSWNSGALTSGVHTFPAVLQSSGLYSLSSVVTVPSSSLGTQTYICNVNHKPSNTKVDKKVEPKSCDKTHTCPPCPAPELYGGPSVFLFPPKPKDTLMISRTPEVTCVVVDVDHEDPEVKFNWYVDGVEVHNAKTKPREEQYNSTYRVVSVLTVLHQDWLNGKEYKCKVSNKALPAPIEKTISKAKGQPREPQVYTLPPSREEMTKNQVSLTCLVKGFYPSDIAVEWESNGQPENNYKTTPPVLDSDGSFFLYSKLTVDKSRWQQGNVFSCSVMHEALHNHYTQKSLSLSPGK
light: DIVMTQSPATLSLSPGERATLSCRSSKSLQNVNGNTYLYWFQQKPGQSPQLLIYRMSNLNSGVPDRFSGSGSGTEFTLTISSLEPEDFAVYYCMQHLEYPITFGAGTKLEIKRTVAAPSVFIFPPSDEQLKSGTASVVCLLNNFYPREAKVQWKVDNALQSGNSQESVTEQDSKDSTYSLSSTLTLSKADYEKHKVYACEVTHQGLSSPVTKSFNRGEC
notes: as for B1
Fold vs WT IgG1 [1]: 15.9 fold | Kd [1]: 0.0922 µM

B14: S267D/A327D (antibody, human IgG1, kappa)
heavy: not shown
light: DIVMTQSPATLSLSPGERATLSCRSSKSLQNVNGNTYLYWFQQKPGQSPQLLIYRMSNLNSGVPDRFSGSGSGTEFTLTISSLEPEDFAVYYCMQHLEYPITFGAGTKLEIKRTVAAPSVFIFPPSDEQLKSGTASVVCLLNNFYPREAKVQWKVDNALQSGNSQESVTEQDSKDSTYSLSSTLTLSKADYEKHKVYACEVTHQGLSSPVTKSFNRGEC
notes: as for B1
Fold vs WT IgG1 [1]: 6.89 fold | Kd [1]: 0.213 µM

B15: S267D/A327E (antibody, human IgG1, kappa)
heavy: not shown
light: DIVMTQSPATLSLSPGERATLSCRSSKSLQNVNGNTYLYWFQQKPGQSPQLLIYRMSNLNSGVPDRFSGSGSGTEFTLTISSLEPEDFAVYYCMQHLEYPITFGAGTKLEIKRTVAAPSVFIFPPSDEQLKSGTASVVCLLNNFYPREAKVQWKVDNALQSGNSQESVTEQDSKDSTYSLSSTLTLSKADYEKHKVYACEVTHQGLSSPVTKSFNRGEC
notes: as for B1
Fold vs WT IgG1 [1]: 12.1 fold | Kd [1]: 0.121 µM

B16: S267D/H268E (antibody, human IgG1, kappa)
heavy: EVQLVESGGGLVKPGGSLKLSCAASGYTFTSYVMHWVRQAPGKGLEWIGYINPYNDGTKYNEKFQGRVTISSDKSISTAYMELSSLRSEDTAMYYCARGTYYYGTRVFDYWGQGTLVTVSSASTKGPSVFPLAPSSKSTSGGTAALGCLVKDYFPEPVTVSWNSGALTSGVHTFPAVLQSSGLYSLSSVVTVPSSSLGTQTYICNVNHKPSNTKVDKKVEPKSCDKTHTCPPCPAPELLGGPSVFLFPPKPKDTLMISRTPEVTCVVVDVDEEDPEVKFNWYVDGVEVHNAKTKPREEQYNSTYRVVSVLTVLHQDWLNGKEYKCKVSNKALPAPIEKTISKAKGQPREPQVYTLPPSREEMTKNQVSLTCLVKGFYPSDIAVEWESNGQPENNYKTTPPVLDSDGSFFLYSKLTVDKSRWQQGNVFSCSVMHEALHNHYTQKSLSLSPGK
light: DIVMTQSPATLSLSPGERATLSCRSSKSLQNVNGNTYLYWFQQKPGQSPQLLIYRMSNLNSGVPDRFSGSGSGTEFTLTISSLEPEDFAVYYCMQHLEYPITFGAGTKLEIKRTVAAPSVFIFPPSDEQLKSGTASVVCLLNNFYPREAKVQWKVDNALQSGNSQESVTEQDSKDSTYSLSSTLTLSKADYEKHKVYACEVTHQGLSSPVTKSFNRGEC
notes: as for B1
Fold vs WT IgG1 [1]: 17.8 fold | Kd [1]: 0.0826 µM

B17: S267E/H268D (antibody, human IgG1, kappa)
heavy: not shown
light: DIVMTQSPATLSLSPGERATLSCRSSKSLQNVNGNTYLYWFQQKPGQSPQLLIYRMSNLNSGVPDRFSGSGSGTEFTLTISSLEPEDFAVYYCMQHLEYPITFGAGTKLEIKRTVAAPSVFIFPPSDEQLKSGTASVVCLLNNFYPREAKVQWKVDNALQSGNSQESVTEQDSKDSTYSLSSTLTLSKADYEKHKVYACEVTHQGLSSPVTKSFNRGEC
notes: as for B1
Fold vs WT IgG1 [1]: 33.3 fold | Kd [1]: 0.044 µM
